{"source": "the DeepSol protein solubility set", "data": [{"experiment": "soluble on expression in E. coli; label from the status in PepcDB or PDB records", "values": [{"sequence": "SLDPLFTTQILKYKGDESFTCNDTLVREIKLEIFINDEKVGALMATPVDEQALAIGYLMSENIIAKVSDIESIETKDDGMSVHIKAKIDKENLAKLNAEGVVISGCGRAHTANIDPEAIEASKISSDAKFSKDEILKQMSTFYTQCELYEKTGCVHTAKLFVDEKTFFIGEDIAQHNTIDKALGKACLAGVDLSQCFLMVSGRLSSEMVAKAVMHKIPVLVSRTAPTCLGVMIARKFDLTLCGFARENKINIYSGEFRIHG", "soluble on expression in E. coli": "soluble"}, {"sequence": "MGSDKIHHHHHHGAGISTESGIPDYRSKDVGLYARIAHKPIYFQDYMRSNRCRQRYWSRNFLAWPRFGQAAPNINHYALSKWEASDRFQWLITQNVDGLHLKAGSKMVTELHGSALQVKCTTCDYIESRQTYQDRLDYANPGFKEEHVAPGELAPDGDIILPLGTEKGFQIPECPSCGGLMKTDVTFFGENVNMDKVNFCYEKVNECDGILSLGTSLAVLS", "soluble on expression in E. coli": "not soluble"}, {"sequence": "RIGIVVAAHGNSTASSMVQVVSQLLNVDNLKAVDMPLDMPPKEALRKIVEAVGEVNEENGVLLLVDMGSLSTFSEEIVRQTGIDVRTVDMVTTPIVLEAARKTALIDTQLETLHESLKNFHGYADIRQSETKQ", "soluble on expression in E. coli": "soluble"}, {"sequence": "MGSDKIHHHHHHMSIDTITLQCFLAVAETQSFTKAAQRVGRTQSAISQQIAKLENLIEKPLINRGRELSLTTDGEIFLGYAKRIYELHRESLDRFKAPELQGEIRFGLPEDFASIILSDVLVEFSRLHPRVLLNVECDLTLNLIERFNEGKFDLILIKTTQQQVGSESIYVCTEPVEWIGKKELLPLLDKPGPIPLVLSPTPCVYRGNVIDTLDKNHIDWRLVYSSASYAGKMAAVRAGLGITAIQRSMIPNYLERLDYDFLPILNDVHVSLLKKSGSNKAIESLEFFILQKLKY", "soluble on expression in E. coli": "not soluble"}, {"sequence": "MQDLKVISKHYAKALKNHTKSDLALLEEIVVGLKNATEAIRQHKLNQVLAHVSLKVKKEVVFEILEKITSIKACSVLKPVMEVVLKNNRLDMLELITEELSFDSKRTLEATLLVPEKLENNELEAVQQKLQARFNAPVEITQDTWSKKGVSLSVSSLDLEIGFSKEDILKKIEKQVIQSI", "soluble on expression in E. coli": "not soluble"}, {"sequence": "MMTKTTTVPKNVYELAQERLRIVFNEFDNVYLSFSGGKDSGVLLSLCIDYIRRNNLKIKLGVFHMDYEIQYKMTIDYIARMLEDNKDILEVYRVCVPFRVATCTSMYQSFWRPWEDSKKDLWVRPLPENAMTKEDFPFYNTQMWDYEFQMRFASWLHEKKDAVRTCCLIGIRTQESFNRWRCIYLNRKYQMYHRYRWTSKVGNDIFNAYPIYDWKTTDVWTANGKFKWDYNKLYDYYYW", "soluble on expression in E. coli": "not soluble"}, {"sequence": "MSFEYNEKVLDHFLNPRNVGVLEDANGVGQCGNPACGDAMLFTIKVNPENDVIEDVRFKTFGCGSAIAVSSMLTEMVKGKPIQYALNLTYKDIFEELGGLPPQKIHCTNLGLETLHVAIKDYLMKQGRVEEASKIPDCYEEEEEQEESKEFEFLSGTLEHHHHHH", "soluble on expression in E. coli": "soluble"}, {"sequence": "MTDEAFAQADPEWLALIRAAREWLSGPLGQLLLEEERRVLDEELGRYFGGYLVHYGPSAQNPPVAPQVQRNVRLGAPLPGVEIVCEEQAWPLSEHAADVVVLQHGLDFCLSPHGLLREAASSVRPGGHLLIIGINPWSAWGVRHVFARDALRKARCISSSRVADWLNLLGFALEKRRFGCYRPPLASAAWQSRLAGLESLGEGRQSPGGGFYLLVARKLVVGLRPLRQVRRDPIGKLIPMPMAKVSRNTQDCS", "soluble on expression in E. coli": "not soluble"}, {"sequence": "MTELARLKFYATQPHPCSYLPEEQATTLFLDPSQPMDTQLYASLSEVGFRRSGDHLYRPHCQHCTACIAARIPVADFSPNRQQRRILKRNAELQVIRKRPSFNEEYYDLYRRYIEQRHADGDMYPPSRDQFATFLVRDLPFCCFFEFRLHGRLLAIAVTDVLPNGLSAVYTFYDPDEEQRSLGRYAILWQIAETERLGLQAVYLGYWIKNCRKMNYKTQYRPIELFVNQRWVALTLEHHHHHH", "soluble on expression in E. coli": "not soluble"}, {"sequence": "AESHWCYEVQAESSNYPCLVPVKWGGNCQKDRQSPINIVTTKAKVDKKLGRFFFSGYDKKQTWTVQNNGHSVMMLLENKASISGGGLPAPYQAKQLHLHWSDLPYKGSEHSLDGEHFAMEMHIVHEKEKGTSRNVKEAQDPEDEIAVLAFLVEAGTQVNEGFQPLVEALSNIPKPEMSTTMAESSLLDLLPKEEKLRHYFRYLGSLTTPTCDEKVVWTVFREPIQLHREQILAFSQKLYYDKEQTVSMKDNVRPLQQLGQRTVIKS", "soluble on expression in E. coli": "soluble"}]}]}
